Experimental data: patent US20240043489A1, “Cytokine Prodrugs Comprising a Cleavable Linker” (Trutino Biosciences Inc., priority 2020, published 2024)

Columns and labels:
[1] = target: collagen (agarose cross-linked to collagen, Sigma); test: pulldown on collagen-agarose beads, anti-mouse IL-2 immunoblot, band quantified with iBright
[2] = target: collagen (agarose cross-linked to collagen, Sigma); test: pulldown on collagen-agarose beads, anti-mouse IL-2 immunoblot, bound fraction normalized to Construct B
[3] = target: collagen cross-linked to agarose (Sigma); test: pulldown with collagen-agarose beads, anti-mouse IL-2 immunoblot quantified with iBright imaging system

Row | Binder | Bound [1] | Bound (% input) [1] [%] | Normalized (fold (relative to Construct B)) [2] | fraction bound (% of input) [3]
1 | Construct II (Fc fusion) APTSSSTSSSTAEAQQQQQQQQQQQQHLEQLLMDLQELLSRMENYRNLKLPRMLTFKFYLPKQATELKDLQCLEDELGPLRHVLDLTQSKSFQLEDAENFISNIRVTVVKLKGSDNTFECQFDDESATVVDFLRRWIAFCQSIISTSPQSLHERHLNNNGPLGVRGGGGGSGGGGSELCLYDPPEVPNATFKALSYKNGTILNCECKRGFRRLKELVYMRCLGNSWSSNCQCTSNSHDKSRKQVTAQLEHQKEQQTTTDMQKPTQSMHQENLTGHCREPPPWKHEDSKRIYHFVEGQSVHYECIPGYKALQRGPAISICKMKCGKTGWTQPQLTCVDEREHHRFLASEESQGSRNSSPESETSCPITTTDFPQPTETTAMTETFVLTMEYKGCKPCICTVPEVSSVFIFPPKPKDVLTITLTPKVTCVVVDISKDDPEVQFSWFVDDVEVHTAQTQPREEQFNSTFRSVSELPIMHQDWLNGKEFKCRVNSAAFPAPIEKTISKTKGRPKAPQVYTIPPPKEQMAKDKVSLTCMITDFFPEDITVEWQWNGQPAENYKNTQPIMDTDGSYFVYSKLNVQKSNWEAGNTFTCSVLHEGLHNHHTEKSLSHSPGK | 2280 | 0.4 | 1.4 | 
2 | Construct II: m IL2-…-MMPcs1-2x(G4S)-mIL2Ra(1-215)-mu IgG1 Fc (Fc fusion) APTSSSTSSSTAEAQQQQQQQQQQQQHLEQLLMDLQELLSRMENYRNLKLPRMLTFKFYLPKQATELKDLQCLEDELGPLRHVLDLTQSKSFQLEDAENFISNIRVTVVKLKGSDNTFECQFDDESATVVDFLRRWIAFCQSIISTSPQSLHERHLNNNGPLGVRGGGGGSGGGGSELCLYDPPEVPNATFKALSYKNGTILNCECKRGFRRLKELVYMRCLGNSWSSNCQCTSNSHDKSRKQVTAQLEHQKEQQTTTDMQKPTQSMHQENLTGHCREPPPWKHEDSKRIYHFVEGQSVHYECIPGYKALQRGPAISICKMKCGKTGWTQPQLTCVDEREHHRFLASEESQGSRNSSPESETSCPITTTDFPQPTETTAMTETFVLTMEYKGCKPCICTVPEVSSVFIFPPKPKDVLTITLTPKVTCVVVDISKDDPEVQFSWFVDDVEVHTAQTQPREEQFNSTFRSVSELPIMHQDWLNGKEFKCRVNSAAFPAPIEKTISKTKGRPKAPQVYTIPPPKEQMAKDKVSLTCMITDFFPEDITVEWQWNGQPAENYKNTQPIMDTDGSYFVYSKLNVQKSNWEAGNTFTCSVLHEGLHNHHTEKSLSHSPGK |  |  |  | < 1 % of input

Now from value to binder:

Row | Bound [1] | Bound (% input) [1] [%] | Normalized (fold (relative to Construct B)) [2] | fraction bound (% of input) [3] | Binder
3 | 2310 | 0.3 | 1 |  | Construct B (Fc fusion) APTSSSTSSSTAEAQQQQQQQQQQQQHLEQLLMDLQELLSRMENYRNLKLPRMLTFKFYLPKQATELKDLQCLEDELGPLRHVLDLTQSKSFQLEDAENFISNIRVTVVKLKGSDNTFECQFDDESATVVDFLRRWIAFCQSIISTSPQSGGGGSGGGGGPLGVRGGGGGSGGGGSELCLYDPPEVPNATFKALSYKNGTILNCECKRGFRRLKELVYMRCLGNSWSSNCQCTSNSHDKSRKQVTAQLEHQKEQQTTTDMQKPTQSMHQENLTGHCREPPPWKHEDSKRIYHFVEGQSVHYECIPGYKALQRGPAISICKMKCGKTGWTQPQLTCVDEREHHRFLASEESQGSRNSSPESETSCPITTTDFPQPTETTAMTETFVLTMEYKGCKPCICTVPEVSSVFIFPPKPKDVLTITLTPKVTCVVVDISKDDPEVQFSWFVDDVEVHTAQTQPREEQFNSTFRSVSELPIMHQDWLNGKEFKCRVNSAAFPAPIEKTISKTKGRPKAPQVYTIPPPKEQMAKDKVSLTCMITDFFPEDITVEWQWNGQPAENYKNTQPIMDTDGSYFVYSKLNVQKSNWEAGNTFTCSVLHEGLHNHHTEKSLSHSPGK
4 |  |  |  | < 1 % of input | Construct GG: m IL2-SGG-KLWVLPK-MMPcs1-2x(G4S)-mIL2Ra(1-215)-mu IgG1 Fc (Fc fusion) APTSSSTSSSTAEAQQQQQQQQQQQQHLEQLLMDLQELLSRMENYRNLKLPRMLTFKFYLPKQATELKDLQCLEDELGPLRHVLDLTQSKSFQLEDAENFISNIRVTVVKLKGSDNTFECQFDDESATVVDFLRRWIAFCQSIISTSPQSGGKLWVLPKGPLGVRGGGGGSGGGGSELCLYDPPEVPNATFKALSYKNGTILNCECKRGFRRLKELVYMRCLGNSWSSNCQCTSNSHDKSRKQVTAQLEHQKEQQTTTDMQKPTQSMHQENLTGHCREPPPWKHEDSKRIYHFVEGQSVHYECIPGYKALQRGPAISICKMKCGKTGWTQPQLTCVDEREHHRFLASEESQGSRNSSPESETSCPITTTDFPQPTETTAMTETFVLTMEYKGCKPCICTVPEVSSVFIFPPKPKDVLTITLTPKVTCVVVDISKDDPEVQFSWFVDDVEVHTAQTQPREEQFNSTFRSVSELPIMHQDWLNGKEFKCRVNSAAFPAPIEKTISKTKGRPKAPQVYTIPPPKEQMAKDKVSLTCMITDFFPEDITVEWQWNGQPAENYKNTQPIMDTDGSYFVYSKLNVQKSNWEAGNTFTCSVLHEGLHNHHTEKSLSHSPGK
5 | 5190 | 0.7 | 2.5 |  | Construct GG (Fc fusion) APTSSSTSSSTAEAQQQQQQQQQQQQHLEQLLMDLQELLSRMENYRNLKLPRMLTFKFYLPKQATELKDLQCLEDELGPLRHVLDLTQSKSFQLEDAENFISNIRVTVVKLKGSDNTFECQFDDESATVVDFLRRWIAFCQSIISTSPQSGGKLWVLPKGPLGVRGGGGGSGGGGSELCLYDPPEVPNATFKALSYKNGTILNCECKRGFRRLKELVYMRCLGNSWSSNCQCTSNSHDKSRKQVTAQLEHQKEQQTTTDMQKPTQSMHQENLTGHCREPPPWKHEDSKRIYHFVEGQSVHYECIPGYKALQRGPAISICKMKCGKTGWTQPQLTCVDEREHHRFLASEESQGSRNSSPESETSCPITTTDFPQPTETTAMTETFVLTMEYKGCKPCICTVPEVSSVFIFPPKPKDVLTITLTPKVTCVVVDISKDDPEVQFSWFVDDVEVHTAQTQPREEQFNSTFRSVSELPIMHQDWLNGKEFKCRVNSAAFPAPIEKTISKTKGRPKAPQVYTIPPPKEQMAKDKVSLTCMITDFFPEDITVEWQWNGQPAENYKNTQPIMDTDGSYFVYSKLNVQKSNWEAGNTFTCSVLHEGLHNHHTEKSLSHSPGK
